The text below walks through data of article PMC10925157.

This assay deals with Acinetobacter baumannii rhodanese-like domain protein (Ab-RLD) (Acinetobacter baumannii). Kind of assay: SEC.

“Acinetobacter baumannii rhodanese-like domain protein (Ab-RLD) (enzyme)”: the stoichiometry N was 2.
